{"source": "paper PMC1888833", "about": "(Nucleic Acids Research, 2007)", "molecules": {"B1": {"name": "HpDnaBDelN3 (N-terminal deletion mutant N3 of HpDnaB, lacking 174 N-terminal residues) (domain or fragment)", "chain": "EVTGIPTGFVQLDNYTSGFNKGSLVIIGARPSMGKTSLMMNMVLSALNDDRGVAVFSLEMSAEQLALRALSDLTSINMHDLESGRLDDDQWENLAKCFDHLSQKKLFFYDKSYVRIEQIRLQLRKLKSQHKELGIAFIDYLQLMSGSKATKERHEQIAEISRELKTLARELEIPIIALVQLNRSLENRDDKRPILSDIKDSGGIEQDADIVLFLYRGYIYQMRAEDNKIDKLKKEGKIEEAQELYLKVNEERRIHKQNGSIEEAEIIVAKNRNGATGTVYTRFNAPFTRYEDMPIDSHLEEGQETKVDYDIVTT"}, "B2": {"name": "Helicobacter pylori DnaB helicase, wild-type, full-length (enzyme, Helicobacter pylori (strain 26695), UniProt O25916 1-488, looked up)", "chain": "MDHLKHLQQLQNIERIVLSGIVLANHKIEEVHSVLEPSDFYYPPNGLFFEIALKLHEEDCPIDENFIRQKMPKDKQIKEEDLVAIFAASPIDNIEAYVEEIKNASIKRKLFGLANTIREQALESAQKSSDILGAVEREVYALLNGSTIEGFRNIKEVLESAMDLITENQRKGSLEVTGIPTGFVQLDNYTSGFNKGSLVIIGARPSMGKTSLMMNMVLSALNDDRGVAVFSLEMSAEQLALRALSDLTSINMHDLESGRLDDDQWENLAKCFDHLSQKKLFFYDKSYVRIEQIRLQLRKLKSQHKELGIAFIDYLQLMSGSKATKERHEQIAEISRELKTLARELEIPIIALVQLNRSLENRDDKRPILSDIKDSGGIEQDADIVLFLYRGYIYQMRAEDNKIDKLKKEGKIEEAQELYLKVNEERRIHKQNGSIEEAEIIVAKNRNGATGTVYTRFNAPFTRYEDMPIDSHLEEGQETKVDYDIVTT"}, "B3": {"name": "HpDnaBMut (ATP binding site mutant, R204 to C in the WALKER A domain) (enzyme, Helicobacter pylori (strain 26695), UniProt O25916 1-488, looked up)", "chain": "MDHLKHLQQLQNIERIVLSGIVLANHKIEEVHSVLEPSDFYYPPNGLFFEIALKLHEEDCPIDENFIRQKMPKDKQIKEEDLVAIFAASPIDNIEAYVEEIKNASIKRKLFGLANTIREQALESAQKSSDILGAVEREVYALLNGSTIEGFRNIKEVLESAMDLITENQRKGSLEVTGIPTGFVQLDNYTSGFNKGSLVIIGACPSMGKTSLMMNMVLSALNDDRGVAVFSLEMSAEQLALRALSDLTSINMHDLESGRLDDDQWENLAKCFDHLSQKKLFFYDKSYVRIEQIRLQLRKLKSQHKELGIAFIDYLQLMSGSKATKERHEQIAEISRELKTLARELEIPIIALVQLNRSLENRDDKRPILSDIKDSGGIEQDADIVLFLYRGYIYQMRAEDNKIDKLKKEGKIEEAQELYLKVNEERRIHKQNGSIEEAEIIVAKNRNGATGTVYTRFNAPFTRYEDMPIDSHLEEGQETKVDYDIVTT"}, "B4": {"name": "HpDnaBDelN2 (N-terminal deletion mutant N2 of HpDnaB, lacking 133 N-terminal residues) (domain or fragment)", "chain": "AVEREVYALLNGSTIEGFRNIKEVLESAMDLITENQRKGSLEVTGIPTGFVQLDNYTSGFNKGSLVIIGARPSMGKTSLMMNMVLSALNDDRGVAVFSLEMSAEQLALRALSDLTSINMHDLESGRLDDDQWENLAKCFDHLSQKKLFFYDKSYVRIEQIRLQLRKLKSQHKELGIAFIDYLQLMSGSKATKERHEQIAEISRELKTLARELEIPIIALVQLNRSLENRDDKRPILSDIKDSGGIEQDADIVLFLYRGYIYQMRAEDNKIDKLKKEGKIEEAQELYLKVNEERRIHKQNGSIEEAEIIVAKNRNGATGTVYTRFNAPFTRYEDMPIDSHLEEGQETKVDYDIVTT"}}, "key": {"HpDnaBDelN3": {"biological_target": "HpDnaBDelN3 (Helicobacter pylori, UniProt O25916)", "conditions": "labelled compound; pH 7.5, 4 °C, UV 254 nm"}, "HpDnaBWt": {"biological_target": "HpDnaBWt (Helicobacter pylori, UniProt O25916)", "conditions": "labelled compound; pH 7.5, 4 °C, UV 254 nm"}, "SEC": {"biological_target": "the molecule itself", "experiment": "SEC"}}}
{"molecule": "Nc1ncnc2c1ncn2[C@@H]1O[C@H](COP(=O)(O)OP(=O)(O)OP(=O)(O)O)[C@@H](O)[C@H]1O", "note": "[∝-32PATP]", "values": [{"measurement": "UV cross-linking, SDS-PAGE, phosphorimager", "setting": "HpDnaBDelN3", "value": "Wild-type, DelN2 and DelN3 showed ATP binding"}, {"measurement": "UV cross-linking, SDS-PAGE, phosphorimager", "setting": "HpDnaBWt", "value": "Wild-type, DelN2 and DelN3 showed ATP binding"}]}
{"molecule": "B1", "values": [{"measurement": "stoichiometry N", "setting": "SEC", "value": 2}]}
{"molecule": "B2", "values": [{"measurement": "stoichiometry N", "setting": "SEC", "value": 6}]}
{"molecule": "B3", "values": [{"measurement": "stoichiometry N", "setting": "SEC", "value": 6}]}
{"molecule": "B4", "values": [{"measurement": "stoichiometry N", "setting": "SEC", "value": 6}]}
